According to article PMC9253516:
One block for each substance: values may come before it.

Columns and labels:
Aurora B (endogenous) = Aurora B (endogenous) (UniProt Q96GD4); experiment: LacO-LacI tethering assay, immunofluorescence in U-2 OS-LacO Haspin CM cells; conditions: n = 17 (parent), red bar = mean, parent: est. 3.5, read off a plot
Sgo1_(1–415) (human) [1] = target: Sgo1_(1–415) (human) (UniProt Q5FBB7); experiment: mass photometry; samples cross-linked with 0.01% glutaraldehyde 5 min at 4°C, quenched with Tris; 20 nM measured in 25 mM Hepes pH 8, 250 mM NaCl, 2 mM DTT
Sgo1_(1–415 4A) (human) = Sgo1_(1–415 4A) (human) (UniProt Q5FBB7); experiment: ITC; 100 μM CPC injected into 10 μM Sgo1 1-415 or 1-415 4A, 20°C; 50 mM Hepes pH 8, 250 mM NaCl, 5% glycerol, 1 mM TCEP, 0.005% Tween; standard 1:1 binding model
Sgo1_(1–415) (human) [2] = target: Sgo1_(1–415) (human) (UniProt Q5FBB7); experiment: as above
Sgo1_(1–130) (human) = Sgo1_(1–130) (human) (UniProt Q5FBB7); experiment: ITC; Survivin or CPC (monomer concentration) injected into Sgo1 constructs, 20°C; 50 mM Hepes pH 8, 150 mM NaCl, 5% glycerol, 1 mM TCEP; standard 1:1 binding model
Sgo1_(1–155) (human) = Sgo1_(1–155) (human) (UniProt Q5FBB7); experiment: as above
Sgo1_(1–415) (human) [3] = target: Sgo1_(1–415) (human) (UniProt Q5FBB7); experiment: as above
Borealin (endogenous) = Borealin (endogenous) (UniProt Q53HL2); experiment: LacO-LacI tethering assay, immunofluorescence in U-2 OS-LacO Haspin CM cells; conditions: n = 22 (parent), red bar = mean, parent: est. 1.5, read off a plot

Sequence of Aurora B (endogenous) (Q96GD4 whole entry): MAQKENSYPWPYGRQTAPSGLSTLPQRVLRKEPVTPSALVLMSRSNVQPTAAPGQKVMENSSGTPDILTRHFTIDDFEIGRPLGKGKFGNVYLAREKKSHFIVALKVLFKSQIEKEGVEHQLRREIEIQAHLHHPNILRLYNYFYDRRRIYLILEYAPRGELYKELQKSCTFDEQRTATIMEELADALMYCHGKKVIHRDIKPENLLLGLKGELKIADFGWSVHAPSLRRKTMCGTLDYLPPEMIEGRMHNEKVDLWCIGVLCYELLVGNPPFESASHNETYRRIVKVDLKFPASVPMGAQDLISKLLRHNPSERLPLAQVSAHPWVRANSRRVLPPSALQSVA

response (Aurora B (endogenous); n = 19 (mutant)): 1.6 a.u.
Substance: Sgo1_(1–527)-LacI-GFP V188A; S189A; V190A; R191A

Substance: CPC_(ISB10–280) (INCENP_(1–58), Survivin full length, Borealin_(10–280)) (from UniProt Q9NQS7 1-58; O15392 1-142; Q53HL2 10-280) (complex)
stoichiometry N (Sgo1_(1–415) (human) [1]): 1 ratio (2:2)
Kd (Sgo1_(1–415 4A) (human)): 112 nM
Kd (Sgo1_(1–415) (human) [2]): 151 nM
Kd (Sgo1_(1–130) (human)): 57.4 nM
Kd (Sgo1_(1–155) (human)): 71.2 nM
Kd (Sgo1_(1–415) (human) [3]): 52.8 nM
dH (Sgo1_(1–415) (human) [3]): -6.58 kcal/mol
stoichiometry N (Sgo1_(1–415) (human) [3]): 1

stoichiometry N (Sgo1_(1–415) (human) [1]): 2
Substance: Sgo1_(1–415) (from UniProt Q5FBB7 1-415) (domain or fragment)

Substance: CPC_(ISB10–280 H80A) (from UniProt Q9NQS7 1-58; O15392 1-142; Q53HL2 10-280) (complex)
Kd (Sgo1_(1–155) (human)): 112 nM

Substance: Survivin_(1–116) (from UniProt O15392 1-116) (domain or fragment)
Kd (Sgo1_(1–155) (human)): 408 nM

response (Aurora B (endogenous); n = 14 (mutant)): 2.3 a.u.
response (Borealin (endogenous); n = 23 (mutant)): 0.6 a.u.
Substance: Sgo1_(1–527)-LacI-GFP Nmut

response (Aurora B (endogenous); n = 22 (mutant)): 0.4 a.u.
response (Borealin (endogenous); n = 22 (mutant)): 0.28 a.u.
Substance: Sgo1_(1–527)-LacI-GFP Nmut; V188A; S189A; V190A; R191A

Substance: CPC_(ISB10–280 K62A) (from UniProt Q9NQS7 1-58; O15392 1-142; Q53HL2 10-280) (complex)
Kd (Sgo1_(1–155) (human)): 42.4 nM

Substance: CPC_(ISB10–221) (INCENP_(1–58), Survivin, Borealin_(10–221)) (from UniProt Q9NQS7 1-58; O15392 1-142; Q53HL2 10-221) (complex)
Kd (Sgo1_(1–130) (human)): 163 nM

Substance: Survivin full length (from UniProt O15392 1-142) (natural protein)
Kd (Sgo1_(1–130) (human)): 255 nM
Kd (Sgo1_(1–155) (human)): 240 nM
